Five molecules from publication PMC9246859 (Nature chemical biology, 2022) can be followed below.

For test [1], the target named is T1, NorA (S. aureus quinolone efflux pump), C-terminal decahistidine tag, in PMAL-C8 amphipol (S. aureus) (UniProt Q5HHX4).
T1 sequence: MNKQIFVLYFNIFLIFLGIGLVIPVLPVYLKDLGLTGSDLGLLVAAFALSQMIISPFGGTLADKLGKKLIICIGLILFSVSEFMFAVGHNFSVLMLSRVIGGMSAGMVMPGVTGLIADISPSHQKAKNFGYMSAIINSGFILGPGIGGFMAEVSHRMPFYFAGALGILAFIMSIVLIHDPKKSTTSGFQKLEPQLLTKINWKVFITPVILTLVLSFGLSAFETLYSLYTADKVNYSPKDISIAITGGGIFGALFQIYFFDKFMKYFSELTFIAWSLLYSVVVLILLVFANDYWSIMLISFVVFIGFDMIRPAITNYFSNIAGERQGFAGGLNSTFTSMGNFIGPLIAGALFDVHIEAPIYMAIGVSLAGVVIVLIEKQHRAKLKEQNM
Description: MST.

The target in test [2] is NorA (S. aureus quinolone efflux pump), C-terminal decahistidine tag, in PMAL-C8 amphipol (S. aureus, UniProt Q5HHX4). Description: MST.
Test [3] addresses T2, NorA (S. aureus quinolone efflux pump), C-terminal decahistidine tag, in PMAL-C8 amphipol (S. aureus, UniProt Q5HHX4 1-388).
T2 sequence: T1 sequence
Description: fluorescence polarisation.

Residue numbers refer to the chain shown, from its start. Names and notes keep the numbering of the source. * marks the point of attachment. FITC = O=C1OC2(c3ccc(O)cc3Oc3cc(O)ccc32)c2ccc(NC(=S)*)cc21; βAla = NCCC(=O)O

B1: Fab36 R134A (CDRH3 mutant) (Fab, V domains shown)
VH: EVQLVESGGGLVQPGGSLRLSCAASGFTFSSSSIHWVRQAPGKGLEWVASISSSSGSTSYADSVKGRFTISADTSKNTAYLQMNSLRAEDTAVYYCARYSRYYYYAWAVGGYWGGLDYWGQGTLVTVFN
VL: DIQMTQSPSSLSASVGDRVTITCRASQSVSSAVAWYQQKPGKAPKLLIYSASSLYSGVPSRFSGSRSGTDFTLTISSLQPEDFATYYCQQSSSSLITFGQGTKVEIK
As to B1, the Kd in test [1] was more than 14000 nM.

B2: Fab25 (synthetic antigen-binding fragment against NorA) (Fab, V domains shown)
VH: EVQLVESGGGLVQPGGSLRLSCAASGFTFSSSSIHWVRQAPGKGLEWVASISSSSGSTSYADSVKGRFTISADTSKNTAYLQMNSLRAEDTAVYYCARWETGYYPYWRMYGFYWALDYWGQGTLVTVFN
VL: B1 VL
Molecule B2 returned a Kd in test [2] of 1200 nM.

B3: Fab36 (synthetic antigen-binding fragment against NorA) (Fab, V domains shown)
VH: B1 VH with A108R
VL: B1 VL
Turning to B3, binding in test [2] was put at a Kd of 140 nM.

B4: Fab36 W133A (CDRH3 mutant) (Fab, V domains shown)
VH: B1 VH with W107A, A108R
VL: B1 VL
As for B4, the “fold reduction of binding affinity against Fab36” value in test [2] was approximately 20 fold.

B5: FITC-NPI-1 (fluorescent analog of NPI-1) (peptide)
peptide: {FITC-βAla}-YYYYAWRVGGYWR-NH2
SMILES: CC(C)[C@H](NC(=O)[C@H](CCCNC(=N)N)NC(=O)[C@H](Cc1c[nH]c2ccccc12)NC(=O)[C@H](C)NC(=O)[C@H](Cc1ccc(O)cc1)NC(=O)[C@H](Cc1ccc(O)cc1)NC(=O)[C@H](Cc1ccc(O)cc1)NC(=O)[C@H](Cc1ccc(O)cc1)NC(=O)CCNC(=S)Nc1ccc2c(c1)C(=O)OC21c2ccc(O)cc2Oc2cc(O)ccc21)C(=O)NCC(=O)NCC(=O)N[C@@H](Cc1ccc(O)cc1)C(=O)N[C@@H](Cc1c[nH]c2ccccc12)C(=O)N[C@@H](CCCNC(=N)N)C(N)=O
Take B5: the affinity in test [3], expressed as Kd, was 10 nM. This lies in the double-digit nanomolar range.
